Series [1] has as its target T1, SaBADH (Staphylococcus aureus, UniProt A0A0H2X0S3).
T1 construct: gene betB; pMCSG7 tagged protein (Ni-NTA), E. coli BL21(DE3)/pMAGIC; tetramer/dimer; G234S cloned in p15TV-LIC
T1 sequence (A0A0H2X0S3 1-496): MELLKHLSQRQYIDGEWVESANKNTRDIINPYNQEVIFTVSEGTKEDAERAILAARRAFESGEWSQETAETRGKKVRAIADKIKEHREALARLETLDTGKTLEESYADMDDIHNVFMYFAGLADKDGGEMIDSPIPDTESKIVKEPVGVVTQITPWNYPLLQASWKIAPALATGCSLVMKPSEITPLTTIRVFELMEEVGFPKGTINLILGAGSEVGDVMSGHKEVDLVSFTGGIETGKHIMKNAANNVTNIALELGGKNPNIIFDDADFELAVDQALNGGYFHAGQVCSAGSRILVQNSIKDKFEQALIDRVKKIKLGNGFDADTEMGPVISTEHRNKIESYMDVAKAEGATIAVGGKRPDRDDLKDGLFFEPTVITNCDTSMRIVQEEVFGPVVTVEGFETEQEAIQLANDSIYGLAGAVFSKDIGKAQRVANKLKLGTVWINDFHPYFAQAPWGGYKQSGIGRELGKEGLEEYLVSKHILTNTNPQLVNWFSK
The series can be described thus: SPR, immobilized SaBADH. In kind it is binding. To be noted: 2 mM ADP, pH 5.0-8.0, 298 K, two-day-old surface. Background: SPR reads the build-up and loss of mass on a sensor chip optically.

Series [2] deals with Gly234Ser mutant of SaBADH (G234S-SaBADH) (Staphylococcus aureus COL). Description: crystal structure; X-ray structures of apo and NAD-bound forms, with and without BME; sitting-drop vapor diffusion at 295 K; assemblies analysed with PISA.
In series [3] the target is T1, SaBADH. The series can be described thus: SPR, immobilized SaBADH(BME+). The format is binding.
The next series addresses T2, AroD (Salmonella enterica, UniProt P58687).
T2 construct: source cited as Light et al., 2013; used as SPR control protein
T2 sequence (P58687 1-252): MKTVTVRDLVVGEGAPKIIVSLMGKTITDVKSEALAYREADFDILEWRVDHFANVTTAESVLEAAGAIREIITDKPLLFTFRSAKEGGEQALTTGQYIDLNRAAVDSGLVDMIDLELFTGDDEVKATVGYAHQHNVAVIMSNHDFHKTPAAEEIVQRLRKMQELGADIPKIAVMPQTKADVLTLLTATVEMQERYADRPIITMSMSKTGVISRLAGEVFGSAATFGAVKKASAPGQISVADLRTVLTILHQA
Description: SPR, single binding isotherm fitting. The text has this:
SPR, single binding isotherm fitting on AroD | each of the proteins selectively responded to its natural ligand, NADH and DQA, respectively

Series [4] addresses betaine aldehyde dehydrogenase SACOL2628 from Staphylococcus aureus COL (SaBADH), wild type (Staphylococcus aureus COL). The series can be described thus: SEC-MALS; SaBADH^BME(+) 2 mg/ml on Superdex 200 10/300 GL in 10 mM Tris-HCl pH 8.3, 500 mM NaCl, 5 mM BME, 295 K. A general note: Size exclusion chromatography separates by hydrodynamic size, large species first.
The target is the same in series [5]. The series can be described thus: dynamic light scattering; SaBADH^BME(−) 10-100 uM in 10 mM Tris-HCl pH 8.3, 0.5 mM TCEP, with 0.5-2.5 M KCl, 298 K.
Series [6] has the same target. Description: dynamic light scattering; SaBADH^BME(−) 10-100 uM in 10 mM Tris-HCl pH 8.3, 0.5 mM TCEP, with 0.5-2.5 M NaCl, 298 K.
Series [7] has the same target. The series can be described thus: crystal structure; X-ray structures of apo and NAD-bound forms, with and without BME; sitting-drop vapor diffusion at 295 K; assemblies analysed with PISA.
Series [8] shares this target. Description: dynamic light scattering; SaBADH^BME(−) 10-100 uM in 10 mM Tris-HCl pH 8.3, 0.5 mM TCEP, no added salt, 298 K.
The target in series [9] is T1, SaBADH. Description: NADH absorbance at […] nm. In kind it is biochemical. Conditions: substrate inhibition; co-substrate NAD+; 100 mM potassium phosphate pH 8.0, 303 K.
Substrate in series [10]: NC(=O)c1ccc[n+]([C@@H]2O[C@H](COP(=O)(O)OP(=O)(O)OC[C@H]3O[C@@H](n4cnc5c(N)ncnc54)[C@H](O)[C@@H]3O)[C@@H](O)[C@H]2O)c1
Description: purified protein. To be noted: co-substrate betaine aldehyde, 100 mM potassium phosphate pH 8.0, 303 K, 30.0 °C, varied: cofactor.

Substrate in series [11]: NC(=O)c1ccc[n+]([C@@H]2O[C@H](COP(=O)(O)OP(=O)(O)OC[C@H]3O[C@@H](n4cnc5c(N)ncnc54)[C@H](OP(=O)(O)O)[C@@H]3O)[C@@H](O)[C@H]2O)c1
The series can be described thus: purified protein. Conditions: co-substrate betaine aldehyde, 100 mM potassium phosphate pH 8.0, 303 K, 30.0 °C, varied: cofactor.

As to `Nc1ncnc2c1ncn2[C@@H]1O[C@H](COP(=O)(O)OP(=O)(O)O)[C@@H](O)[C@H]1O` [ADP], the “SPR, immobilized SaBADH” value at SaBADH [1] is “An acidic pH favored the ADP–SaBADH interaction”. As usually defined, the stoichiometry N is a count of units in the complex or per binding partner. Turning to “Gly234Ser mutant of SaBADH (G234S-SaBADH) (enzyme)”, in series [2], the stoichiometry N is 4.

Usually Kd stands for the equilibrium constant for the complex coming apart. A high value points to lower affinity. Turning to `NC(=O)C1=CN([C@@H]2O[C@H](COP(=O)(O)OP(=O)(O)OC[C@H]3O[C@@H](n4cnc5c(N)ncnc54)[C@H](O)[C@@H]3O)[C@@H](O)[C@H]2O)C=CC1` [NADH], the equilibrium dissociation constant (Kd) at SaBADH [3] was determined as 4.5 µM. On to `O=C1C[C@@](O)(C(=O)O)C[C@@H](O)[C@@H]1O` [3-dehydroquinic acid], for which the Kd at AroD was found to be 244 µM. In turn, `NC(=O)c1ccc[n+]([C@@H]2O[C@H](COP(=O)(O)OP(=O)(O)OC[C@H]3O[C@@H](n4cnc5c(N)ncnc54)[C@H](O)[C@@H]3O)[C@@H](O)[C@H]2O)c1` [NAD^+] gave a Kd at SaBADH [3] of 19.3 µM.

As to “betaine aldehyde dehydrogenase SACOL2628 from Staphylococcus aureus COL (SaBADH), wild type (enzyme)”, the stoichiometry N in [4] was 4; in series [5], 2; in series [6], 4; in [7], 4; in series [8], 2. For the molecule `C[N+](C)(C)CC=O` [betaine aldehyde], the Betaine aldehyde at SaBADH [9] is on record as 0.34 ± 0.06 mM.

B1: SaBADH (Staphylococcus aureus subsp. aureus COL) (protein)
chain: T1 sequence (A0A0H2X0S3 1-496)
In general, Km refers to the concentration of substrate that gives half-maximal velocity. As to B1, the values for the Michaelis constant (Km) in the series “purified protein [10]” and in the series “purified protein [11]” were 430 ± 30 µM and 2260 ± 350 µM, respectively.

These data come from publication PMC4427200 (Acta Crystallographica Section D: Biological Crystallography, 2015).
